The text below walks through data of US20240309113A1 (SUZHOU TRANSCENTA THERAPEUTICS, published 2024).

Numbering of substitutions follows the chain as printed.

B1: OMS721 (hIgG4 kappa) (antibody, V domains shown)
VH: QVTLKESGPVLVKPTETLTLTCTVSGFSLSRGKMGVSWIRQPPGKALEWLAHIFSSDEKSYRTSLKSRLTISKDTSKNQVVLTMTNMDPVDTATYYCARIRRGGIDYWGQGTLVTVSS
VL: QPVLTQPPSLSVSPGQTASITCSGEKLGDKYAYWYQQKPGQSPVLVMYQDKQRPSGIPERFSGSNSGNTATLTISGTQAMDEADYYCQAWDSSTAVFGGGTKLTVLR
notes: Benchmark antibody with the variable regions of OMS721 (Narsoplimab) and the constant region of human IgG4; also called OMS721-analog
B2: 129C10H2C1 (hybridoma antibody 129C10, mouse) (antibody, V domains shown)
VH: QVQLQQSGPELEKPGTSVKISCEASGYTFTDYYINWVQQRPGQGLEWIGWIFPGSESAYHSEKFKAKATLTVDTSSTTAYMLLTSLTSEDSAVYFCTRGDRSGPFAYWGQGTLVTVSA
VL: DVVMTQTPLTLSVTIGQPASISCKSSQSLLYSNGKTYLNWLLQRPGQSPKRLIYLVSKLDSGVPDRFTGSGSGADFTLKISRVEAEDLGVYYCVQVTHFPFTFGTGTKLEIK
notes: Mouse monoclonal antibody purified from hybridoma supernatant; The label 129C10H2C1 is read as a subclone of 129C10; also called 129C10 mouse/chimeric
B3: 160D10 (hybridoma antibody, mouse) (antibody, V domains shown)
VH: QVQLQQSGPELVKPGASVKISCKASGYTFTDYYINWVKQRPGQGLEWVGWIFPGSDSAYYNEKFKGKATLTVDTSSSTAYMLLSSLTSEDSAVYFCARGDRSGPFPYWGQGTLVTVSA
VL: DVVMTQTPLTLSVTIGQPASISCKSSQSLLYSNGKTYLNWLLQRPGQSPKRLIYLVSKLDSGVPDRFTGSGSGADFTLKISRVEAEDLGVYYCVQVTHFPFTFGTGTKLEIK
notes: Mouse monoclonal antibody purified from hybridoma supernatant; also called 160D10 mouse/chimeric
B4: 125D5G1G2 (hybridoma antibody 125D5, mouse) (antibody, V domains shown)
VH: QVQLQQSGPDLVKPGTSVKISCTASGYTFTDYYINWVKQRPGQGLEWIGWIFPGSGSPYYNENFKGRAMFTVDYSSSSAYMLLSSLTSEDSAVYFCTRGDRSGPFAYWGQGTLVTVSA
VL: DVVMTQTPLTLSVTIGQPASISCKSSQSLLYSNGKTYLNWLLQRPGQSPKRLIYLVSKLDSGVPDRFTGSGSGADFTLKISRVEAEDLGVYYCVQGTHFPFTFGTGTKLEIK
notes: Mouse monoclonal antibody purified from hybridoma supernatant; The label 125D5G1G2 is read as a subclone of 125D5; also called 125D5 mouse/chimeric
B5: 129C10 HdLb (antibody, human IgG4, V domains shown)
VH: QVQLVQSGAEVKKPGASVKVSCKASGYTFTDYYINWVRQAPGQGLEWMGWIFPGSESAYHSQKFQGRATLTVDTSISTAYMELSRLRSDDTAVYYCTRGDRSGPFAYWGQGTLVTVSS
VL: DVVMTQSPLSLPVTLGQPASISCKSSQSLLYSNGKTYLNWLQQRPGQSPRRLIYLVSKLDSGVPDRFSGSGSGADFTLKISRVEAEDVGVYYCVQVTHFPFTFGQGTKLEIK
notes: Humanized
B6: 129C10 HaLb (antibody, human IgG4, V domains shown)
VH: B5 VH with Q62E, Q65K, G66A, A68V, L70M
VL: B5 VL
notes: Humanized
B7: 129C10 HbLa (antibody, human IgG4, V domains shown)
VH: B5 VH with Q62E, Q65K, G66A
VL: B5 VL with A74T
notes: Humanized
B8: 129C10 HdLa (antibody, human IgG4, V domains shown)
VH: B5 VH
VL: B5 VL with A74T
notes: Humanized
B9: 129C10 HcLa (antibody, human IgG4, V domains shown)
VH: B5 VH with A68V, L70M
VL: B5 VL with A74T
notes: Humanized
B10: 129C10 HbLb (antibody, human IgG4, V domains shown)
VH: B5 VH with Q62E, Q65K, G66A
VL: B5 VL
notes: Humanized
B11: 129C10 HcLb (antibody, human IgG4, V domains shown)
VH: B5 VH with A68V, L70M
VL: B5 VL
notes: Humanized
B12: 129C10chiIgG4 (chimeric 129C10, human IgG4 kappa) (antibody, V domains shown)
VH: B2 VH
VL: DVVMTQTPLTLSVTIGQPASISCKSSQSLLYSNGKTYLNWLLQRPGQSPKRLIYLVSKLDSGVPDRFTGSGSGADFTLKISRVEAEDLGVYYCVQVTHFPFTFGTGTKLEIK
notes: also called 129C10 mouse/chimeric
B13: 160D10chiIgG4 (chimeric 160D10, human IgG4 kappa) (antibody, V domains shown)
VH: B3 VH
VL: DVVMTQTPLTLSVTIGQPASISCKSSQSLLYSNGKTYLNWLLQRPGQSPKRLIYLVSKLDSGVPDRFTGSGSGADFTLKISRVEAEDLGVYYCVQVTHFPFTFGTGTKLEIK
notes: also called 160D10 mouse/chimeric
B14: 125D5chiIgG4 (chimeric 125D5, human IgG4 kappa) (antibody, V domains shown)
VH: B4 VH
VL: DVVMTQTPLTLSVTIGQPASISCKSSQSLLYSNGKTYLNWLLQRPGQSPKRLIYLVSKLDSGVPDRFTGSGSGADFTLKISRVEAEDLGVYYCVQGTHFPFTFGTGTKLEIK
notes: also called 125D5chilgG4; 125D5 mouse/chimeric

T2 sequence (O00187 16-686): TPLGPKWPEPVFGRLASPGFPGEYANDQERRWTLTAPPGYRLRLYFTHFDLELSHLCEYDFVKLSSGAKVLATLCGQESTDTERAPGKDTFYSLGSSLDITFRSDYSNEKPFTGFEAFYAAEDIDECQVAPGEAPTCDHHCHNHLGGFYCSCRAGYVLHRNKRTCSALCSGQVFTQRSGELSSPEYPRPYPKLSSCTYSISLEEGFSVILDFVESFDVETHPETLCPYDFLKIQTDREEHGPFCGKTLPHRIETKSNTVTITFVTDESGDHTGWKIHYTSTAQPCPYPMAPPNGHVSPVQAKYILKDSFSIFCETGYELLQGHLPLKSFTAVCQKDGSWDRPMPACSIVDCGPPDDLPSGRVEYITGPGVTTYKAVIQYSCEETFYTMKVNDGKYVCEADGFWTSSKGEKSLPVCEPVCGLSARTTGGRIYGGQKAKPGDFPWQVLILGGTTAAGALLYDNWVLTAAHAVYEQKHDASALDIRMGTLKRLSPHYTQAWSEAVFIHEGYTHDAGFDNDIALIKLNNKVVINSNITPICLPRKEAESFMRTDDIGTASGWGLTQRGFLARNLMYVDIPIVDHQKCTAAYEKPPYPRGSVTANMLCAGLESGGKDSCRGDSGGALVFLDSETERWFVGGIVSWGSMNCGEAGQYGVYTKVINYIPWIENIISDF
T4 sequence (Q9JJS8 20-685 limits assumed): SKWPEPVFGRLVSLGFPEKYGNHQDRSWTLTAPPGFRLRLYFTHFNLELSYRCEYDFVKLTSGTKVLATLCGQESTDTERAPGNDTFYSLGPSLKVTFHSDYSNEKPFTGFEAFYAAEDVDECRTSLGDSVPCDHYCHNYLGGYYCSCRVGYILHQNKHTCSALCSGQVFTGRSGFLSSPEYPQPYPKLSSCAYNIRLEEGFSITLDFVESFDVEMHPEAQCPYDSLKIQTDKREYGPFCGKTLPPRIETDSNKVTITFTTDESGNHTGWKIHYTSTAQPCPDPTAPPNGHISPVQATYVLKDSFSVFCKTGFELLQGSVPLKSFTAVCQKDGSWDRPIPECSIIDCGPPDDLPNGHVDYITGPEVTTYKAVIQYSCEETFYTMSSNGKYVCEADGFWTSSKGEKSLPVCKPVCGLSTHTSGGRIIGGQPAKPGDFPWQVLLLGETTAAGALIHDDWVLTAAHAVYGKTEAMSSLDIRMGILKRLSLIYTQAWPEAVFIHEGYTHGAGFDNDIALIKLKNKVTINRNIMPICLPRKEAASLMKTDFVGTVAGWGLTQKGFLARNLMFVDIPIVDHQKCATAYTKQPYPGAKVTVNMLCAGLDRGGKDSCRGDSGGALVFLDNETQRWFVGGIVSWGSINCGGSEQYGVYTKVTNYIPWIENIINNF

The target of one assay is T1, Cyno MASP2.
T1 construct: Recombinant coated protein; distinct from m29 (native MASP-2 in cynomolgus serum); also called cynomolgus MASP-2 (recombinant, generated in house)
T1 sequence (MASP-2 polypeptide, as listed by the source limits assumed): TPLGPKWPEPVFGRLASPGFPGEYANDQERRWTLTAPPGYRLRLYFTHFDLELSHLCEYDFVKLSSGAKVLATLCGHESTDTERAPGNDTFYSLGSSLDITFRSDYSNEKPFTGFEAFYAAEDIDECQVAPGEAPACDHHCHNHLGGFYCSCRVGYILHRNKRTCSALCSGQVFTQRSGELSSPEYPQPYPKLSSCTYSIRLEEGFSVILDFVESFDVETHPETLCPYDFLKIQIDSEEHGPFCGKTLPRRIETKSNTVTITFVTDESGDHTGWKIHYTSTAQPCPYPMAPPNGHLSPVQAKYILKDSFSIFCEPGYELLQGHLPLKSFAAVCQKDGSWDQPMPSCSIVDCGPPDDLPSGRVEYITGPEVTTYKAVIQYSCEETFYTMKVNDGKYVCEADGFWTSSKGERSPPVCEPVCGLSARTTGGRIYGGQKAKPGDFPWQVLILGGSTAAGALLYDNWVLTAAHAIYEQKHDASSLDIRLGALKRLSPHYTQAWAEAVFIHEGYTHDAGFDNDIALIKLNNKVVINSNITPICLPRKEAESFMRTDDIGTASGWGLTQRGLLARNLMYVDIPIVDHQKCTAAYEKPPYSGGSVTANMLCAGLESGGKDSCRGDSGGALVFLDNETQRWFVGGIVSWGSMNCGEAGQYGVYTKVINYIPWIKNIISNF
Nature of the assay: ELISA; plate coated with cynomolgus MASP2 (1 ug/ml), serially diluted antibody, mouse anti-human IgG4 Fc HRP, OD450.
Turning to B1, the midpoint of the response, the EC50, lay at 0.0181 µg/mL.

Another assay has as its target T2, human MASP-2 protein (recombinant, full-length, C-terminal tag) (human, UniProt O00187 16-686).
T2 construct: The protein was secreted and purified on an anti-FLAG or anti-HIS column; also called hMASP-2; Full-length human MASP-2 protein; not shown: C-terminal HIS-tag or FLAG-tag
Put plainly: BLI (ForteBio Octet RED96), antibody on Protein A biosensor, human MASP-2 in solution (100, 50, 25 nM).
As to B2, the Kd stood at 0.746 nM, the koff was found to be 4.78e-05 s⁻¹ and the kon amounted to 64000 M⁻¹ s⁻¹.

As for B3, the Kd was determined as 27.8 nM, the koff is 0.001 s⁻¹ and the kon was 36100 M⁻¹ s⁻¹.

Take B4: the dissociation constant (Kd) turned out to be 1.64 nM, the koff came out at 9.73e-05 s⁻¹ and the kon was determined as 59400 M⁻¹ s⁻¹.

Another assay has as its target T2, human MASP-2 protein (recombinant, …). Described as above. The source holds these as a separate data set.
As to B5, the Kd was less than 0.001 nM, the koff was less than 1e-07 s⁻¹ and the kon turned out to be 36000 M⁻¹ s⁻¹.

With B6, the Kd came out at 11.4 nM, the koff stood at 0.000291 s⁻¹ and the kon was determined as 25500 M⁻¹ s⁻¹.

As for B7, the Kd was less than 0.001 nM, the koff is less than 1e-07 s⁻¹ and the kon was determined as 32900 M⁻¹ s⁻¹.

B8: the Kd amounted to 17.1 nM, the off-rate (koff) turned out to be 0.000425 s⁻¹ and the kon is 24900 M⁻¹ s⁻¹.

Regarding B9, the Kd was less than 0.001 nM, the koff was less than 1e-07 s⁻¹ and the kon is 35200 M⁻¹ s⁻¹.

In the case of B10, the Kd is less than 0.001 nM, the koff is less than 1e-07 s⁻¹ and the association rate constant (kon) stood at 32900 M⁻¹ s⁻¹.

Take B11: the Kd was 1.36 nM, the koff turned out to be 4.56e-05 s⁻¹ and the kon was found to be 33700 M⁻¹ s⁻¹.

Take B12: the Kd worked out at 8.02 nM, the koff was found to be 0.000206 s⁻¹ and the kon came out at 25700 M⁻¹ s⁻¹.

As for B13, the Kd stood at 0.984 nM, the koff turned out to be 3.34e-05 s⁻¹ and the kon is 34000 M⁻¹ s⁻¹.

Consider B14, for which the Kd came to 19.5 nM, the koff worked out at 0.000499 s⁻¹ and the kon amounted to 25600 M⁻¹ s⁻¹.

In another assay the target is T3, Mouse MASP2 (mouse, UniProt Q91WP0).
T3 construct: purchased protein coated on the ELISA plate at 1 ug/ml
T3 sequence (Q91WP0 20-685 limits assumed): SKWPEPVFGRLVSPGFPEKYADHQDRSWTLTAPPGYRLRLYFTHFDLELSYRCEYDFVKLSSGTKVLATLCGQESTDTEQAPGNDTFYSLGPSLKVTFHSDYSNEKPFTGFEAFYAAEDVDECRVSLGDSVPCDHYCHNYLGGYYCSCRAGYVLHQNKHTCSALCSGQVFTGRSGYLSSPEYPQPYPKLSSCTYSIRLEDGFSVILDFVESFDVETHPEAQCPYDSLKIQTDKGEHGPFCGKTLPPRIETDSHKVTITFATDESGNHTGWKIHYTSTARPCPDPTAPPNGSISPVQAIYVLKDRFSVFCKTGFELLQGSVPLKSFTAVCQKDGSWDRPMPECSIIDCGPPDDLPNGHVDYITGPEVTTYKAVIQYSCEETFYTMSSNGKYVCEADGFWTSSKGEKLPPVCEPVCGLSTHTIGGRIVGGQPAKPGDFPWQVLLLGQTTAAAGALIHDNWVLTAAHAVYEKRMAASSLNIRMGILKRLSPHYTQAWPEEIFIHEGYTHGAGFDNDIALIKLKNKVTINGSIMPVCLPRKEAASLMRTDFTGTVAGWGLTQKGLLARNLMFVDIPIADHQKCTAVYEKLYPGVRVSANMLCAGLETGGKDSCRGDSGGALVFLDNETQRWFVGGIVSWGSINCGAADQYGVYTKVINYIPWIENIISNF
Nature of the assay: ELISA; plate coated with mouse MASP2 (1 ug/ml), serially diluted antibody, mouse anti-human IgG4 Fc HRP, OD450.
Regarding B1, a half-maximal effect (EC50) was put at 4.91 µg/mL.

Another assay has as its target T4, Rat MASP2 (rat, UniProt Q9JJS8).
T4 construct: purchased protein coated on the ELISA plate at 1 ug/ml
Put plainly: ELISA; plate coated with rat MASP2 (1 ug/ml), serially diluted antibody, mouse anti-human IgG4 Fc HRP, OD450.
Molecule B1 displayed an EC50 of 12.3 µg/mL.
